Laboratory results: the Human Domainome abundance scans (Beltran et al. 2025)
± gives the uncertainty stated by the source.

B1: Transcription factor SOX-4, residues 60 to 127; numbered along this chain, Q06945 (parent)
chain: KRPMNAFMVWSQIERRKIMEQSPDMHNAEISKRLGKRWKLLKDSDKIPFIREAERLRLKHMADYPDYK

Variants of: B1
Test: abundance fitness (aPCA) (normalised: wild type 0, dead -1); higher = more abundant; growth selection in yeast, the domain comes from the species named
Conditions: Homo sapiens

Abundance fitness, by site and new letter:
K39: V -0.306 ± 0.039; S -0.027 ± 0.036; Y -0.263 ± 0.076; T -0.216 ± 0.064; W -0.758 ± 0.091
H60: D 0.005 ± 0.075; F -0.193 ± 0.21; S 0.041 ± 0.06; P -0.045 ± 0.079; R -0.19 ± 0.047; A -0.055 ± 0.045; T -0.05 ± 0.069; C -0.205 ± 0.13; K 0.023 ± 0.1; V -0.173 ± 0.053; Q -0.066 ± 0.072; E 0.053 ± 0.072; L -0.186 ± 0.052; I -0.408 ± 0.2; G 0.04 ± 0.05; M -0.092 ± 0.073; N -0.076 ± 0.24; W -0.161 ± 0.074
M61: A -0.061 ± 0.067; C -0.071 ± 0.083; Q 0.092 ± 0.079; H 0.098 ± 0.061; T -0.025 ± 0.093; P -0.202 ± 0.087; I -0.238 ± 0.072; R -0.134 ± 0.057; N -0.104 ± 0.13; K 0.003 ± 0.089; S 0.001 ± 0.071; G 0.022 ± 0.069
E52: K -0.515 ± 0.12; M -0.394 ± 0.071; C -0.353 ± 0.11; Y -0.634 ± 0.23; T -0.477 ± 0.11; R -0.322 ± 0.1; S -0.712 ± 0.11; N -0.893 ± 0.19; W -0.58 ± 0.14; D -0.223 ± 0.13; V -0.556 ± 0.065; F -0.215 ± 0.11; L -0.3 ± 0.062; Q -0.291 ± 0.088; P -1.14 ± 0.29; G -0.375 ± 0.13; H -0.726 ± 0.3
K46: M -0.841 ± 0.074; F -0.995 ± 0.11; L -0.652 ± 0.063; S -0.901 ± 0.066; D -0.524 ± 0.072; H -1.09 ± 0.14; Q -0.701 ± 0.14; Y -1 ± 0.13; V -0.798 ± 0.061; W -0.95 ± 0.11; I -0.553 ± 0.072; R -0.237 ± 0.04; A -0.937 ± 0.13; C -0.814 ± 0.087; T -0.694 ± 0.06; P -0.933 ± 0.2; N -1.08 ± 0.11
L40: D 0.094 ± 0.058; C -0.046 ± 0.043; S 0.039 ± 0.042; Y -0.331 ± 0.08; F -0.34 ± 0.069; V -0.329 ± 0.046; P -1.29 ± 0.41; G -0.08 ± 0.041; I -0.468 ± 0.064; Q 0.011 ± 0.071; T 0.019 ± 0.065; H -0.153 ± 0.14; R -0.08 ± 0.041
E54: G -0.514 ± 0.044; C -0.425 ± 0.049; V -0.696 ± 0.055; N -0.158 ± 0.041; Q -0.071 ± 0.062; W -0.643 ± 0.09; H -0.435 ± 0.045; L -0.501 ± 0.045; Y -0.652 ± 0.058; F -0.574 ± 0.056; K -0.369 ± 0.06; D -0.264 ± 0.046; R -0.469 ± 0.051; A -0.29 ± 0.062; I -0.701 ± 0.067; P -0.802 ± 0.11
D45: G -0.495 ± 0.1; Q -0.097 ± 0.16; H -0.429 ± 0.32; W -0.344 ± 0.12; F -0.39 ± 0.48; S -0.431 ± 0.089; Y -0.361 ± 0.21; L -0.378 ± 0.09; C -0.758 ± 0.25; K -0.486 ± 0.33; M -0.395 ± 0.14; V -0.414 ± 0.082; R -0.74 ± 0.094; A -0.239 ± 0.071; T -0.576 ± 0.11; E -0.074 ± 0.089
L56: S -0.282 ± 0.049; I -0.149 ± 0.093; F -0.543 ± 0.11; C -0.408 ± 0.1; V -0.286 ± 0.063; G -0.341 ± 0.071; A -0.355 ± 0.073; R -0.254 ± 0.054; Q -0.108 ± 0.08; P -0.655 ± 0.1; Y -0.349 ± 0.22; T -0.272 ± 0.09; K -0.174 ± 0.15; D -0.385 ± 0.13; W -0.542 ± 0.088; M 0.115 ± 0.14; E -0.201 ± 0.1
S44: Q -0.073 ± 0.073; F -0.442 ± 0.13; V -0.164 ± 0.066; T -0.134 ± 0.12; A 0.035 ± 0.053; P -0.465 ± 0.13; E 0.119 ± 0.1; C -0.472 ± 0.13; W -0.41 ± 0.099; Y -0.687 ± 0.19; R -0.264 ± 0.066; M -0.243 ± 0.1; H -0.205 ± 0.1; N -0.23 ± 0.18; D -0.217 ± 0.14
D43: E -0.058 ± 0.057; Q -0.337 ± 0.069; I -0.226 ± 0.058; L -0.151 ± 0.044; V -0.262 ± 0.039; W -0.106 ± 0.043; S -0.237 ± 0.037; K -0.273 ± 0.06; F -0.087 ± 0.041; M -0.062 ± 0.056; G -0.27 ± 0.046; C -0.37 ± 0.058; P -0.137 ± 0.067; A -0.061 ± 0.055; N -0.294 ± 0.053
I47: V -0.086 ± 0.037; G -0.231 ± 0.039; D -0.128 ± 0.054; H -0.314 ± 0.051; M -0.047 ± 0.05; E 0.095 ± 0.059
